Measured values published in patent US20260285954.

Target: Aβ oligomers (Aβ42) (human), P05067
Assay: SPR
Settings: remark: other sources report otherwise

Aβ oligomers (Aβ42) (human), P05067, sequence (P05067 672-713): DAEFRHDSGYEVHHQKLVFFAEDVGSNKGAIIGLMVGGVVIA

Kd: 847 pM
B1: 3F (protein)
chain: MAEVQLLESGGGLVQPGGSLRLSCAASGFTFSSYAMSWVRQAPGKGLEWVSGISNLGLTTGYADSVKGRFTISRDNSKNTLYLQMNSLRAEDTAVYYCAKTTSRFDYWGQGTLVTVSSGGGGSGGGGSGGGGSTDIQMTQSPSSLSASVGDRVTITCRASQSISSYLNWYQQKPGKAPKLLIYKASYLQSGVPSRFSGSGSGTDFTLTISSLQPEDFATYYCQNSAVRPVTFGQGTKVEIKR
